Measured values from patent US20100292083A1 (Ablynx, published 2010).
Changes are numbered by the printed parent chain.

B1: 32C9PMP1_A1 (VHH, name in Kabat numbering)
VHH: EVQLVESGGGLVQAGGSLRLSCAASGFTFSDYDIGWVRQAPGKEREWVSGISSSDGNTYYADSVKGRFTISSDNAKNTLYLQMNSLRPEDTAVYYCAAEPPDSSWYLDGSPEFFKYWGQGTLVTVSS
notes: Humanized 32C9 variant
B2: 32C9PMP1_B3 (VHH, name in Kabat numbering)
VHH: B1 VHH with A14P, S30D, R45L, W47G
notes: Humanized 32C9 variant
B3: 32C9PMP1_B5 (VHH, name in Kabat numbering)
VHH: B1 VHH with A14P, V37F, S72R, L122Q
notes: Humanized 32C9 variant
B4: 32C9PMP1_C5 (VHH, name in Kabat numbering)
VHH: B1 VHH with S30D, R45L, W47G, L79V
notes: Humanized 32C9 variant
B5: 32C9PMP1_D4 (VHH, name in Kabat numbering)
VHH: B1 VHH with V37F, E44G, W47G, R87K, P88A, L122Q
notes: Humanized 32C9 variant
B6: 32C9PMP1_E1 (VHH, name in Kabat numbering)
VHH: B1 VHH with V37F, E44G, W47G, S72R, R87K, P88A
notes: Humanized 32C9 variant
B7: 32C9PMP1_E6 (VHH, name in Kabat numbering)
VHH: B1 VHH with E44G, W47G, L79V, R87K, P88A
notes: Humanized 32C9 variant
B8: 32C9PMP1_E7 (VHH, name in Kabat numbering)
VHH: B1 VHH with S30D, V37F, E44G, W47G, R87K, P88A
notes: Humanized 32C9 variant
B9: 32C9PMP1_F8 (VHH, name in Kabat numbering)
VHH: B1 VHH with V37F, R87K, P88A
notes: Humanized 32C9 variant
B10: 32C9PMP1_G5 (VHH, name in Kabat numbering)
VHH: B1 VHH with A14P, S30D, V37F, R45L, W47G, S72R
notes: Humanized 32C9 variant
B11: 32C9PMP1_G11 (VHH, name in Kabat numbering)
VHH: B1 VHH with V37F, E44G, W47G, L79V
notes: Humanized 32C9 variant
B12: 32C9PMP1_H4 (VHH, name in Kabat numbering)
VHH: B1 VHH with A14P, V37F, E44G, W47G, R87K, P88A, L122Q
notes: Humanized 32C9 variant
B13: 32C9PMP2_A2 (VHH, name in Kabat numbering)
VHH: B1 VHH with A14P, V37F, E44G, W47G, S72R, R87K, P88A, L122Q
notes: Humanized 32C9 variant
B14: 32C9PMP2_A7 (VHH, name in Kabat numbering)
VHH: B1 VHH with E44G, W47G, S72R, R87K, P88A
notes: Humanized 32C9 variant
B15: 32C9PMP2_A12 (VHH, name in Kabat numbering)
VHH: B1 VHH with S30D, V37F, R45L, W47G, L79V, R87K, P88A, L122Q
notes: Humanized 32C9 variant
B16: 32C9PMP2_B3 (VHH, name in Kabat numbering)
VHH: B1 VHH with V37F, W47G, S72R, L79V, R87K, P88A
notes: Humanized 32C9 variant
B17: 32C9PMP2_B5 (VHH, name in Kabat numbering)
VHH: B1 VHH with E44G, W47G, L79V
notes: Humanized 32C9 variant
B18: 32C9PMP2_B11 (VHH, name in Kabat numbering)
VHH: B1 VHH with S30D, L122Q
notes: Humanized 32C9 variant
B19: 32C9PMP2_B12 (VHH, name in Kabat numbering)
VHH: B1 VHH with A14P, V37F, L79V, R87K, P88A, L122Q
notes: Humanized 32C9 variant
B20: 32C9PMP2_C3 (VHH, name in Kabat numbering)
VHH: B1 VHH with R87K, P88A, L122Q
notes: Humanized 32C9 variant
B21: 32C9PMP2_C6 (VHH, name in Kabat numbering)
VHH: B1 VHH with E44G, L122Q
notes: Humanized 32C9 variant
B22: 32C9PMP2_D10 (VHH, name in Kabat numbering)
VHH: B1 VHH with A14P, R45L, W47G, L79V
notes: Humanized 32C9 variant
B23: 32C9PMP2_E1 (VHH, name in Kabat numbering)
VHH: B1 VHH with A14P, S30D, V37F, R45L, W47G, L79V, L122Q
notes: Humanized 32C9 variant
B24: 32C9PMP2_E2 (VHH, name in Kabat numbering)
VHH: B1 VHH with A14P, V37F, R45L, W47G, R87K, P88A, L122Q
notes: Humanized 32C9 variant
B25: 32C9PMP2_F3 (VHH, name in Kabat numbering)
VHH: B1 VHH with S30D, E44G, W47G, L79V, R87K, P88A
notes: Humanized 32C9 variant
B26: 32C9PMP2_F12 (VHH, name in Kabat numbering)
VHH: B1 VHH with S30D, E44G, W47G
notes: Humanized 32C9 variant
B27: 32C9PMP2_G4 (VHH, name in Kabat numbering)
VHH: B1 VHH with S30D, E44G, W47G, S72R, R87K, P88A, L122Q
notes: Humanized 32C9 variant
B28: 32C9PMP2_G12 (VHH, name in Kabat numbering)
VHH: B1 VHH with V37F, E44G, W47G, S72R, R87K, P88A, L122Q
notes: Humanized 32C9 variant
B29: Nanobody 32C9 (VHH)
VHH: B1 VHH with S30D, V37F, W47G, L79V, R87K, L122Q
notes: Tested as periplasmic extract; also called 32C9 WT; IL6R04
B30: P32C9PMP2_E12 (VHH, name in Kabat numbering)
VHH: B1 VHH with S30D, V37F, E44G, W47G, S72R, L79V
notes: Humanized 32C9 variant
B31: 32C9PMP2_A5 (VHH, name in Kabat numbering)
VHH: B1 VHH with A14P, S30D, E44G, W47G, L79V, A98R
notes: Humanized 32C9 variant
B32: 32C9PMP2_A10 (VHH, name in Kabat numbering)
VHH: B1 VHH with E44G, W47G, S72R, R87K, P88A, A98R, L122Q
notes: Humanized 32C9 variant
B33: 32C9PMP2_B4 (VHH, name in Kabat numbering)
VHH: B1 VHH with A14P, S30D, V37F, R45L, W47G, L79V, A98R, L122Q
notes: Humanized 32C9 variant
B34: 32C9PMP2_B7 (VHH, name in Kabat numbering)
VHH: B1 VHH with V37F, E44G, W47G, S72R, R87K, P88A, A98R
notes: Humanized 32C9 variant
B35: 32C9PMP2_C4 (VHH, name in Kabat numbering)
VHH: B1 VHH with S30D, V37F, L79V, R87K, P88A, A98R
notes: Humanized 32C9 variant
B36: 32C9PMP2_C10 (VHH, name in Kabat numbering)
VHH: B1 VHH with A14P, S30D, E44G, W47G, R87K, P88A, A98R
notes: Humanized 32C9 variant
B37: 32C9PMP2_C12 (VHH, name in Kabat numbering)
VHH: B1 VHH with S30D, R87K, P88A, A98R
notes: Humanized 32C9 variant
B38: 32C9PMP2_D5 (VHH, name in Kabat numbering)
VHH: B1 VHH with A14P, S30D, R45L, W47G, S72R, L79V, R87K, P88A, A98R
notes: Humanized 32C9 variant
B39: 32C9PMP2_D8 (VHH, name in Kabat numbering)
VHH: B1 VHH with A14P, V37F, W47G, S72R, L79V, R87K, P88A, A98R, L122Q
notes: Humanized 32C9 variant
B40: 32C9PMP2_D9 (VHH, name in Kabat numbering)
VHH: B1 VHH with A14P, V37F, E44G, W47G, L79V, A98R
notes: Humanized 32C9 variant
B41: 32C9PMP2_E6 (VHH, name in Kabat numbering)
VHH: B1 VHH with A14P, V37F, W47G, S72R, L79V, R87K, P88A, A98R
notes: Humanized 32C9 variant
B42: 32C9PMP2_E7 (VHH, name in Kabat numbering)
VHH: B1 VHH with V37F, S72R, A98R
notes: Humanized 32C9 variant
B43: 32C9PMP2_F2 (VHH, name in Kabat numbering)
VHH: B1 VHH with S30D, A98R
notes: Humanized 32C9 variant
B44: 32C9PMP2_F5 (VHH, name in Kabat numbering)
VHH: B1 VHH with A14P, S30D, V37F, R87K, P88A, A98R
notes: Humanized 32C9 variant

target: T1, human IL6R (human, UniProt P08887 20-358, limits assumed); assay: SPR (Biacore), periplasmic extract
T1 construct: Antigen of the Biacore experiments
T1 sequence (looked up): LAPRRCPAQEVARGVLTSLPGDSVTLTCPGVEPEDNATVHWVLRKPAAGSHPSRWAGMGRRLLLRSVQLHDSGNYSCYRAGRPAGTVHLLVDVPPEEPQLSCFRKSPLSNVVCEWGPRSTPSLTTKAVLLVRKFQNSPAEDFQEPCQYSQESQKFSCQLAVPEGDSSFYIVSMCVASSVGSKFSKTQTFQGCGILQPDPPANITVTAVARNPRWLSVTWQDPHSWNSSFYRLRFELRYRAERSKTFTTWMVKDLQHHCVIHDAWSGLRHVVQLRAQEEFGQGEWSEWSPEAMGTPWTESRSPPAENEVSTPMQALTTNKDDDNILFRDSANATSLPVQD
Method: The oligos were dissolved in H₂O and subsequently pooled at a final concentration of 0.4 uM for each oligo. 5 and 1 ul of this mixture was used for assembly PCR in a 50 ul reaction volume. Full-length product was purified using the Qiagen PCR purification kit. The purified PCR product was then digested with SfiI and BsteEII and ligated into the corresponding sites of expression vector pAX51. E. coli TG1 cells were transformed with 2 ul of ligation mixture and plated on LB agar+100 ug/ml ampicillin+2% glucose. Plates were incubated overnight at 37° C. Individual colonies were picked and grown overnight in 2×YT+100 ug/ml ampicillin+2% glucose. Cloned Nanobody genes were amplified directly from these cultures with M13 forward and reverse primers. PCR products were purified and subsequently sequenced. In parallel the same panel of Nanobodies was expressed at 1 ml scale for 4 hours at 37° C. Periplasmic extracts were prepared and without further purification analyzed on Biacore for their ability to bind human IL6R.

Question: With B1 as the binder, how does the koff read?
Answer: 0.00515 s⁻¹

Question: For B2, which koff is on record?
Answer: 0.00346 s⁻¹

Question: Which koff does the source give for B3 here?
Answer: 0.00196 s⁻¹

Question: How did the koff turn out when B4 was run?
Answer: 0.0052 s⁻¹

Question: Which koff does the source give for B5 here?
Answer: 0.000196 s⁻¹

Question: B6 was tested. Which koff did it give?
Answer: 0.000205 s⁻¹

Question: With B7 as the binder, how does the koff read?
Answer: 0.000982 s⁻¹

Question: B8 was tested. Which koff did it give?
Answer: 0.000187 s⁻¹

Question: For B9, which koff is on record?
Answer: 0.00189 s⁻¹

Question: B10 was tested. Which koff did it give?
Answer: 0.00116 s⁻¹

Question: For B11, which koff is on record?
Answer: 0.000204 s⁻¹

Question: With B12 as the binder, how does the koff read?
Answer: 0.000187 s⁻¹

Question: With B13 as the binder, how does the koff read?
Answer: 0.000192 s⁻¹

Question: B14 was tested. Which koff did it give?
Answer: 0.000792 s⁻¹

Question: How did the koff turn out when B15 was run?
Answer: 0.0029 s⁻¹

Question: For B16, which koff is on record?
Answer: 0.000308 s⁻¹

Question: How did the koff turn out when B17 was run?
Answer: 0.000803 s⁻¹

Question: With B18 as the binder, how does the koff read?
Answer: 0.00768 s⁻¹

Question: Which koff does the source give for B19 here?
Answer: 0.00564 s⁻¹

Question: Which koff does the source give for B20 here?
Answer: 0.0138 s⁻¹

Question: B21 was tested. Which koff did it give?
Answer: 0.00426 s⁻¹

Question: How did the koff turn out when B22 was run?
Answer: 0.00707 s⁻¹

Question: B23 was tested. Which koff did it give?
Answer: 0.00166 s⁻¹

Question: For B24, which koff is on record?
Answer: 0.00121 s⁻¹

Question: How did the koff turn out when B25 was run?
Answer: 0.000804 s⁻¹

Question: Which koff does the source give for B26 here?
Answer: 0.000584 s⁻¹

Question: Which koff does the source give for B27 here?
Answer: 0.0007 s⁻¹

Question: With B28 as the binder, how does the koff read?
Answer: 0.000197 s⁻¹

Question: With B29 as the binder, how does the koff read?
Answer: 0.000162 s⁻¹

Question: Which koff does the source give for B30 here?
Answer: 0.000247 s⁻¹

target: T1, human IL6R; assay: SPR (Biacore), periplasmic extract; remark: another data set of the same source

Question: Does B31 bind?
Answer: no binding

Question: Does B32 bind?
Answer: no binding

Question: Does B33 bind?
Answer: no binding

Question: Does B34 bind?
Answer: no binding

Question: Does B35 bind?
Answer: no binding

Question: Does B36 bind?
Answer: no binding

Question: Does B37 bind?
Answer: no binding

Question: Does B38 bind?
Answer: no binding

Question: Does B39 bind?
Answer: no binding

Question: Does B40 bind?
Answer: no binding

Question: Does B41 bind?
Answer: no binding

Question: Does B42 bind?
Answer: no binding

Question: Does B43 bind?
Answer: no binding

Question: Does B44 bind?
Answer: no binding
